Assay results reported in US20220048967A1 (published 2022).

T1: human gastric inhibitory peptide receptor (GIPR) (human, UniProt P48546 22-466)
T1 sequence (looked up): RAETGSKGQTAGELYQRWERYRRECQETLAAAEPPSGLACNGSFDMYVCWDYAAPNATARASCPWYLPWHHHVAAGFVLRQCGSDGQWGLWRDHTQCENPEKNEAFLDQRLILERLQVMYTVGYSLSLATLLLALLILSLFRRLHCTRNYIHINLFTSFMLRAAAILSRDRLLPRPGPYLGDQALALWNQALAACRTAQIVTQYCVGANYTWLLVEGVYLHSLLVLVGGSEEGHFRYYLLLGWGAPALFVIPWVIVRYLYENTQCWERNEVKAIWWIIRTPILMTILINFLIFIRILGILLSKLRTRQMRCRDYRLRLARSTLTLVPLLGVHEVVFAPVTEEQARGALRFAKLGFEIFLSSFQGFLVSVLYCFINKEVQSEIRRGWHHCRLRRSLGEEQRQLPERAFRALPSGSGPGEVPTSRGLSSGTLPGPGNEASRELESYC

T2: human GIP receptor (human, UniProt P48546 22-466)
T2 sequence (looked up): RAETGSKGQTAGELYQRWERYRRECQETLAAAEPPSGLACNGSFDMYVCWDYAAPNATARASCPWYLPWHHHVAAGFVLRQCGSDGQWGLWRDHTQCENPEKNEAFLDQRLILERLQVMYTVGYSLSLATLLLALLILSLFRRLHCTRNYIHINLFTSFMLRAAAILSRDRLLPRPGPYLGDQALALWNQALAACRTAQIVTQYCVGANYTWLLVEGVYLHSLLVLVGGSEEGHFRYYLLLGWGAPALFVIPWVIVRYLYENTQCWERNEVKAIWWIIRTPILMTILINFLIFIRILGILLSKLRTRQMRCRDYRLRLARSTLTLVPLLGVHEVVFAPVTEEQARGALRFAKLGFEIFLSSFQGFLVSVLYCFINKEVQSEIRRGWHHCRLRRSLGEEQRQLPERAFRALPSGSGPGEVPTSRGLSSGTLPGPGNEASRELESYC


Columns and labels:
Assay in all cases: cell-based or functional assay
[1] = target: T1, human gastric inhibitory peptide …
[2] = target: human GLP-1 receptor (GLP-1R) (human, UniProt P43220 24-463)
human GIP receptor = target: T2, human GIP receptor
human GLP-1 receptor = human GLP-1 receptor (human, UniProt P43220 24-463)
Wherever hGIPR cAMP EC50 ratio is given: reference of the scale not given here.
Wherever hGLP1R cAMP EC50 ratio is given: reference of the scale not given here.

Binder | hGIPR cAMP EC50 ratio [1] | hGIPR cAMP Rel EC50 [1] | hGLP1R cAMP EC50 ratio [2] | hGLP1R cAMP Rel EC50 [2] | hGIPR cAMP Rel EC50 (human GIP receptor) | hGLP1R cAMP Rel EC50 (human GLP-1 receptor)
XXEGTFTSDYSIXLDKKAQXAFIXYLIEGGPSSGAPPPS (D-Tyr1, Aib2, αMeL13, (2-[2-(2-Amino-ethoxy)-ethoxy]-acetyl)2-(γ-Glu)-CO-(CH2)18-CO2H on K17, Aib20, D-Glu24, C-terminal NH2) [Example 356] | 0.364 | 0.386 nM | 0.0647 | 0.506 nM |  | 
XXEGTFTSDYSIXLDXKAQXAFIXYLIEGGPSSGAPPPS (D-Tyr1, Aib2, αMeL13, Orn16, (2-[2-(2-Amino-ethoxy)-ethoxy]-acetyl)2-(γ-Glu)-CO-(CH2)18-CO2H on K17, Aib20, D-Glu24, C-terminal NH2) [Example 357] | 0.366 | 0.384 nM | 0.181 | 0.181 nM |  | 
XXEGTFTSDYSIXLDXKAQXAFVEYLIAGGPSSGAPPPS (D-Tyr1, Aib2, αMeL13, Orn16, (2-[2-(2-Amino-ethoxy)-ethoxy]-acetyl)2-(γ-Glu)-CO-(CH2)18-CO2H on K17, Aib20, C-terminal NH2) [Example 358] | 0.662 | 0.183 nM | 0.26 | 0.117 nM |  | 
YXEGTXTSDYSIXLDXKAQXEFIXYLIEGGPSSGAPPPS (Aib2; αMeF(2F)6; αMeL13; Orn16; K17((2-[2-(2-Amino-ethoxy)-ethoxy]-acetyl)2-(γ-Glu)-CO-(CH2)18-CO2H); Aib20; D-Glu24; C-terminal NH2) [Example 3] |  |  |  |  | 0.0411 nM | 
YXEGTFTSDYSILLDKKAQXAFIEYLIEGGPSSGAPPPS (αMePro2; K17((2-[2-(2-Amino-ethoxy)-ethoxy]-acetyl)2-(γ-Glu)-CO-(CH2)18-CO2H); Aib20; C-terminal NH2) [Example 87] |  |  |  |  |  | 0.0801 nM
YXEGTFTSDYSILLDKKAQXAFIEYLIEGGPSSGAPPPS (Aib2; K17((2-[2-(2-Amino-ethoxy)-ethoxy]-acetyl)-AOC-(γ-Glu)-CO-(CH2)18-CO2H); Aib20; C-terminal NH2) [Example 108] |  |  |  |  |  | 0.294 nM
YXEGTFTSDYSILLDKKAQXAFIEYLIEGGPSSGAPPPS (Aib2; K17((2-[2-(2-Amino-ethoxy)-ethoxy]-acetyl)-(Trx)-(γ-Glu)-CO-(CH2)18-CO2H); Aib20; C-terminal NH2) [Example 111] |  |  |  |  |  | 0.308 nM
YXEGTFTSDYSILLDKKAQXAFIEYLIEGGPSSGAPPPS (Aib2; K17((2-[2-(2-Amino-ethoxy)-ethoxy]-acetyl)-(ϵK)-(ϵK)-CO-(CH2)18-CO2H); Aib20; C-terminal NH2) [Example 114] |  |  |  |  |  | 0.267 nM
